According to patent US9951335B2, “Compositions and methods for treating otitis media and other conditions with inhibitors of CYLD” (Georgia State University Research Foundation, Inc., priority 2012, dated 2018):

How the values were obtained:
TGF-β-signalling [1] = assay: TGF-β-induced SBE-promoter (SBE-Luc) activity in human epithelial cells; format: cell-based
Protocol: (§1) The expression plasmids Flag-WT-CYLD, HA-WT-CYLD, Flag-H/N-CYLD, HA-C/S-CYLD, Flag-WT-Smad3, C/A-TβRI, and the reporter plasmids SBE-Luc, PAI-1-Luc, and NF-κB-Luc were previously described. Flag-WT-Akt1, pRK5-HA-Ub WT, pRK5-HA-Ub K63, and pRK5-HA-Ub K48 were from Addgene, and K to R mutants of Akt were generated with WT-Akt1 using QuickChange XL Site-Directed Mutagenesis kit (Stratagene). All transient transfections were carried out using TransIT-LT1 reagent (Minis) or Lipofectamine (Invitrogen) according to manufacturers' instructions.

TGF-β-signalling [2] = assay: SBE-Luc activity in TβR-deficient DR26 and R1B cells; format: cell-based, mink
From the text: Having identified CYLD as a negative regulator of TGF-β-signalling and lung fibrosis, we next sought to determine how CYLD inhibits TGF-β-signalling. TGF-β-ligands bind to a type II receptor (TβRII), which recruits and phosphorylates a type I receptor (TβRI). The activated TβRI then phosphorylates the Smad subgroup known as receptor-activated Smads (R-Smad), for example, Smad3, which can bind to Co-Smad Smad4. The R-Smad and Co-Smad complex then undergoes nuclear translocation for target gene regulation. To first determine at which level CYLD inhibits TGF-β-signalling, we took advantage of the available lung epithelial cell lines, DR26 and R1B that are derived from the WT Mv1Lu cells and lack functional […] TβRI, respectively. […] We next determined whether CYLD exerts its inhibitory effect on TGF-β-signalling at the level or downstream of TβRI by assessing the effects of siCYLD on WT-Smad3-induced SBE-Luc activity in TβRI-deficient R1B cells. […] To further determine whether CYLD inhibits TGF-β-signalling by likely targeting Smad3, we next evaluated the effect of CYLD knockdown in Smad3-deficient MEF cells.
A549, HeLa and HEK293 cells were maintained in the F12-K, minimal essential medium Eagle's with Earle's balanced salt solution (EMEM), and DMEM […]. […]

PAI-1 [3] = assay: TGF-β-induced PAI-1 expression (promoter activity, mRNA) in human cells; format: cell-based; conditions: A549 and HeLa cells
Protocol: Total RNA was isolated using TRIzol reagent following the manufacturer's instructions. Synthesis of complementary DNA from total RNA was performed with MultiScribe reverse transcriptase. Real-time quantitative PCR was performed using an ABI 7500 Sequence Detection System (Applied Biosystems). Relative quantities of mRNAs were calculated using the comparative threshold cycle method and normalized using human and mouse glyceraldehyde-3-phosphate dehydrogenase as an endogenous control. The primer sequences for mouse COL1A2, COL3A1, CTGF and PAI-1, and human PAI-1, CHIP, and Smad3 are as follows. Mouse CTGF: 5′-[…]-3′ (SEQ ID NO:1) and 5′-[…]-3′ (SEQ ID NO:2); mouse COL1A2: 5′-[…]-3′ (SEQ ID NO:3) and 5′-[…]-3′ (SEQ ID NO:4); mouse COL3A1: 5′-[…]-3′ (SEQ ID NO:5) and 5′-[…]-3′ (SEQ ID NO:6); mouse PAI-1: 5′-[…]-3′ (SEQ ID NO:7) and 5′-[…]-3′ (SEQ ID NO:8); human PAI-1: 5′-[…]-3′ (SEQ ID NO:9) and 5′-[…]-3′ (SEQ ID NO:10); human CHIP: 5′-[…]-3′ (SEQ ID NO:11) and 5′-[…]-3′ (SEQ ID NO:12).
as §1

NF-κB = assay: TNF-α-induced NF-κB-Luc activity; format: cell-based; conditions: TNF-α 10 ng ml−1
Protocol: as §1

[4] = test system: TGF-β-induced fibrotic response; assay: TGF-β-induced fibrotic response in TRAF6-depleted cells; format: cell-based
From the text: Because K14 lysine in the pleckstrin homology domain of Akt is critical for mediating its function, we next determined whether mutation of K14 lysine to arginine (R) reduces polyubiquitination of Akt. […] We further determined whether K14 residue in Akt is indeed functionally critical for mediating CYLD-induced inhibition of TGF-β-signalling. […] TNF receptor-associated factor 6 (TRAF6) was previously shown to function as an E3 ligase for Akt-K63 polyubiquitination and CYLD deubiquitinates TRAF6. Thus, we next explored the possibility that CYLD may inhibit Akt-mediated fibrotic responses via deubiquitinating TRAF6.
It is possible that CYLD may inhibit Akt-mediated fibrotic response by actually deubiquitinating TRAF6. Thus, we evaluated the effect of siCYLD on TGF-β-induced fibrotic response in TRAF6-depleted cells using siTRAF6. […] Here we have provided strong evidence that CYLD inhibits S. pneumoniae-induced Smad3-dependent fibrosis via inhibiting Akt, thereby linking CYLD to Smad3 via Akt. It is still unclear whether or not direct activation of Akt induces a fibrotic response via Smad3. Indeed, direct activation of Akt by expressing a constitutively active form of C/A-Akt induces expression of the fibrotic response gene PAI-1 and CTGF in Smad3+/+ cells, but not in Smad3−/− cells. […]

PAI-1 [5] = assay: TGF-β-induced PAI-1 expression in Akt1−/− cells; format: cell-based
From the text: Thus, we determined the effect of knockdown of both Akt1 and 2 on Smad3 protein level in these cells. […] We further confirmed whether activation of Akt does induce upregulation of fibrotic response gene expression via Smad3. Activation of Akt by expressing a constitutively active C/A-Akt indeed induced expression of PAI-1 and CTGF in Smad3+/+ cells, but not in Smad3−/− cells. […] PI3 K is known as the one of the major signalling molecules upstream of Akt. We thus determined whether PI3K, like Akt, is also involved in mediating CYLD-dependent Smad3 degradation by evaluating the effect of PI3K and Akt inhibitors on Smad3 protein expression. […] Further studies are needed to determine whether CYLD-Akt-mediated regulation of Smad3 is indeed independent of PI3K by using more specific approaches.

B1: siCYLD: RNA-mediated interference for downregulating CYLD expression using pSuper-CYLD, SEQ ID NO:13 (nucleic acid)
chain: GATCCCCGAGCTACTGAGGACAGAAATTCAAGAGATTTCTGTCCTCAGTAGCTCTTTTTGGAAA
modifications: expressed from pSuper vector
- TGF-β-induced Smad-binding element (SBE)-dependent promoter activity (TGF-β-signalling [1]; A549 and HeLa cells): markedly enhanced
- TGF-β-induced SBE-dependent promoter activity, dose-dependent manner (TGF-β-signalling [1]; A549 cells transfected with various amounts): enhanced
- TGF-β-induced SBE-Luc activity (TGF-β-signalling [1]; human primary bronchial epithelial NHBE cells): enhanced
- WT-Smad3-induced SBE-Luc activation (TGF-β-signalling [2]; TβRI-deficient R1B cells): markedly enhanced
- constitutively active (C/A)-TβRI-induced SBE-Luc activity (TGF-β-signalling [2]; TβRII-deficient DR26 cells): markedly enhanced
- TGF-α-responsive PAI-1 promoter activity (PAI-1 [3]): markedly enhanced
- PAI-1 messenger RNA (PAI-1 [3]; TGF-β stimulated): markedly enhanced
- TNF-α-induced activation of NF-κB-Luc activity (NF-κB): greatly enhanced
- TGF-β-induced fibrotic response [4]: still enhanced
- TGF-β-induced PAI-1 expression (PAI-1 [5]): no longer enhanced
